Results taken from the supplement of paper PMC12764529.
± gives the half width of the 95% confidence interval.

What was measured:
[1] = folding stability dG unfold from trypsin proteolysis; higher = more stable
In short: (§1)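 How resistant each design was to proteolysis was captured as K50, inferred by Bayesian fitting of sequencing counts. Unfolding free energy was then derived relative to a sequence-predicted unfolded-state K50 and a shared folded-state K50, per protease or combined. Digestion used trypsin and chymotrypsin at 11 threefold-diluted concentrations plus a no-protease condition, on mini-proteins under 80 residues without cysteine in a PA-tagged cDNA display construct. Designs were kept only when AlphaFold2 dimer inter-PAE was above 15.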

[2] = folding stability dG unfold from chymotrypsin proteolysis; higher = more stable
In short: as §1

[3] = folding stability dG unfold (combined trypsin and chymotrypsin); higher = more stable
In short: as §1

Row | Sequence | folding stability dG unfold [1] [kJ/mol] | folding stability dG unfold [2] [kJ/mol] | folding stability dG unfold [3] [kJ/mol]
1 | SAMKIAKVTYEPVKVDGKELLLFKVEIVHSETGEKEEKTFLTEDPEDFIENLLKHPDIDIVEILEFKEGSAG [r14_464_TrMRF] | 9.69 ± 0.544 | 14.4 ± 0.276 | 13.4 ± 0.347
2 | SAMKIIIKLPKNVKPIKAEELEKIPGIKVVKIEIYKGEDGVYYLLIEIEESIPPEKLKELEEKIREIAGSAG [r14_421_TrMRF] | 18.6 ± 1.17 | 22.7 ± 0.628 | 24.3 ± 1.72
3 | SAMKIKPGEKVKIKIEVKNKKTKKKKTIEIEVPVDEETGEVFTEDELKKLLEKLGIEVEEVKIVEIEKESAG [r14_93_TrROS_Hall] | 3.71 ± 0.197 | 2.51 ± 0.628 | 3.18 ± 0.879
4 | SAMKKGEKVKVTLEIEVNGKKYKIELVYDKENNTYTIKIKNEKTGETKTIEVKAKTKEEALEAAKKLLESAG [r14_65_TrROS_Hall] | 8.19 ± 0.318 | 10.7 ± 0.146 | 10.1 ± 0.669
5 | SAMKLPKDVEIKEIKFDPEKTVTIKIKVKKYDFFIYDPETGKVIVIKPGEEKEITLPANIPLLIFAIKPSAG [r14_385_TrMRF] | 9.06 ± 0.385 | 7.97 ± 0.41 | 9.05 ± 0.962
6 | SAMKLSPELLKKLGLSKEDIKEIEIEVEPVPELSEEDLKKKNVTVYKVKIKIKVNGKEYEVELLFVEPKSAG [r14_483_TrROS_Hall] | 7.68 ± 0.293 | 10.4 ± 0.753 | 9.13 ± 0.628
7 | SAMKPKEVVIEISVEELRKLAKELFPEKELTLEELKNLVKELLEKLGIKVKKVEIVKVDPEKKRIVIKVSAG [r14_303_TrROS_Hall] | 11.6 ± 0.628 | 7.21 ± 0.347 | 8.46 ± 0.879
8 | SAMKTIEIEIELDELKNLTPEELEEKAKELAEELAKKLAEEKGLEVVSVKVEVVEKDGKLVVKVTVEVKSAG [r14_310_TrROS_Hall] | 15 ± 1 | 11.8 ± 1.09 | 15.3 ± 2.97
9 | SAMKVEKLEELPDKEILKVEATPEELRKIVEELAKANPGYEVSYKILEEEPIALITLTPIPKGPKENLVSAG [r14_600_JUSTAS] | 4.51 ± 0.251 | 0.0729 ± 0.837 | 3.33 ± 0.544
10 | SAMKVKVIVINPDGKPQEFEFEAEEGDPEKLVEEVEAEIKKLHPNSDIKFKAEVLEVKPDGEITILVSDSAG [r14_622_TrMRF] | 8.48 ± 0.795 | 11.6 ± 0.209 | 10.5 ± 0.586
11 | SAMKVTVKPTTLPDGTTVVVTTEPDKIVAYGTYNGDSFTSESLPDGTVVTTAKKPGGVLVTSPTDPNLESAG [r14_213_JUSTAS] | 1.09 ± 0.0837 | 0.47 ± 0.586 | 1.11 ± 0.31
12 | SAMKVYEIPIEIPISKYKPSDIIAALKKALDKLNIPFPEEIIKELTIISIKTGGNISTAIKTLLENGLLSAG [r14_364_TrMRF] | 7.09 ± 0.502 | 5.41 ± 0.402 | 6.51 ± 0.711
13 | SAMKVYIAASSPEEIEGWIEEARKAGIDGPELIFVSPDDRVYKAEIIPNTGEVKIEPVKPIEELLKELPSAG [r14_913_TrMRF] | 4.55 ± 0.46 | 3.3 ± 1.67 | 4 ± 1.42
14 | SAMKVYKAKVTIVDEEGNLLDEIELEFETEEELKEKVLEELGVSEEEIVEIELSPEVSEEEFEKKLKLESAG [r14_852_JUSTAS] | -1.78 ± 1.05 | 3.25 ± 0.628 | 1.45 ± 0.586
15 | SAMLEEVEERAREIAERLREEYPDVEEFTVELELPLPDGRFLRVTVTIRRERDDEGDTFEVEVDVEEVDSAG [r14_788_TrMRF] | 14.5 ± 0.544 | 20.6 ± 0.544 | 18.6 ± 0.397
16 | SAMLKLEITLPDGTVVEVEIPLERPVPPAGEEEALAAAEAVREAVAAALGLEDAEVTMEVEEVSPEELLSAG [r14_378_JUSTAS] | 6.9 ± 0.502 | 4.31 ± 0.213 | 5.88 ± 0.837
17 | SAMLPSIIIAKAKEAIEKSGKPVPVVIKIPVYKKENGPPVSLEKAKEIFEKLKEAFPDVPIIIELEEPESAG [r14_636_TrMRF] | 3.66 ± 0.046 | 2.25 ± 0.142 | 3.21 ± 0.201
18 | SAMLTILSVETHTLPNGEEIVTVTLKTPDLETLDALLAELGLTGTRDPDDPQVVTITTSREKVQEIKEKSAG [r14_777_JUSTAS] | 14 ± 0.586 | 19.7 ± 0.837 | 19.1 ± 1.26
19 | SAMMKAEIVEIKFDPKTKKLTIKFPDGSKLEIKPGETIKIKIKVTVFNEETGKLEEKEITLTLKLPEGLSAG [r14_366_TrROS_Hall] | 9.67 ± 1.13 | 12.4 ± 0.418 | 12.2 ± 1.8
20 | SAMPEKRFYTYEIPIPPGFKADEPFVGTVTLEEKTLPIKIGSIPDVPPDATVRLTVDLDTAEFRVELLPSAG [r14_554_TrMRF] | 3.81 ± 0.418 | 5.42 ± 0.364 | 4.87 ± 0.837
21 | SAMRIEIVRDPETGELVVRVVLPREEAEEAAEELARRLAEAGLEVEVKVVRIEETDGETRVVVEIKVKPSAG [r14_345_TrROS_Hall] | 15.7 ± 0.46 | 12.1 ± 0.255 | 13.8 ± 0.418

Row | Sequence | folding stability dG unfold [1] [kJ/mol] | folding stability dG unfold [2] [kJ/mol] | folding stability dG unfold [3] [kJ/mol]
22 | SAMRIVVPYRETLRLTGLPEDTPLEEFRERFERIFRRLMERGVRPVRIEIYEIGDERYIVVEIETPGGASAG [r14_158_TrMRF] | 12.16 ± 0.0795 | 16.91 ± 0.0711 | 15.1 ± 0.172
23 | SAMSEKDMEPIETFELPETNVKIELYYNKKTKKYVIKIKNKKTKKTKTIVIKSKDGKITLEELKKLIKKSAG [r14_948_TrROS_Hall] | 12.3 ± 1 | 14.3 ± 0.322 | 15.1 ± 1.3
24 | SAMSLEDMTPEELEELVKELIEKLREELEKEGKTIKPGETIEIEIEVKGKKLKIKITVDKDGNIKIEVESAG [r14_501_TrROS_Hall] | 12 ± 0.837 | 12.7 ± 0.351 | 12.4 ± 0.385
25 | SAMSVKTYSSTSVDPKTGKTYTTTTTVTPKPEPPWLVTTTTYLVDPATGTTTLLSTTTTTLDPNDPTLLSAG [r14_939_JUSTAS] | 8.82 ± 0.297 | 11.2 ± 0.46 | 10.3 ± 0.351
26 | SAMTKTETFTFDDVEITVTTTEVTLPNGEKKDVYTLTKYTVDPSTGTTTPSSKTFSSKEEMEAALKASLSAG [r14_500_JUSTAS] | 15.1 ± 1.13 | 16.89 ± 0.167 | 16.6 ± 0.669
27 | SAMTLTLEFENLKDLTEEEIEEALKEAGLPGVKILGIKKTSEKWTITIAYDSSTPKEKIEAAIKKAVAESAG [r14_657_JUSTAS] | 21.1 ± 1.46 | 19.4 ± 0.544 | 19.1 ± 0.753
28 | SAMTLTLEIELDGVRVRLEAELELVLNEDGSLELKLKLKIEVEPLPPPKEVEVEEEEEEVEEVEFLPEESAG [r14_341_TrROS_Hall] | 16 ± 1.3 | 19.3 ± 1.17 | 18.6 ± 1.09
29 | SAMTTTTSVDPASGSSTVTTTEIIEKPAGKLPNGTKLPPVKVKKTTTTTYAPNGTKLSTTTTTTPVPLGSAG [r14_246_JUSTAS] | 4.21 ± 0.268 | 2.8 ± 0.46 | 3.66 ± 0.36
30 | SAMTVTSSVTTQPVPDSSDTVTYTNITVTIGNQTVTYTETVTYSSTDPTLRTVTTLLPDGTTVTTTVPVGSA [r9_897_JUSTAS] | 8.1 ± 0.418 | 10.9 ± 0.351 | 9.13 ± 0.544
31 | SAMVEVRIEYDEETGEIRIEVRAEEEGEELTEEEIEELARELAEELGLPVEIKEIRVEKAPEVEEVVLESAG [r14_556_TrROS_Hall] | 4.39 ± 0.753 | 3.17 ± 0.418 | 3.7 ± 1.26
32 | SAMVLKVEEEPFPPNAKREVKEIRKDPNSDNLFKVKIELEKSPDPSVTSAKVITIPPDGSKKVEEKVLESAG [r14_10_JUSTAS] | 2.15 ± 1.13 | 1.97 ± 0.795 | 2.13 ± 2.47
33 | SAMVLRLVVTVTGKIGDSLSTTTITREVSLEEYSEEELEALAEAVADAIRAANPEATVSLSILPEEELESAG [r14_723_JUSTAS] | 10.3 ± 0.31 | 10.73 ± 0.0837 | 10.8 ± 0.406
34 | SAMVSVTELPDGGVLATFPLPDGHPATAVFDPADLKPSVAYFPNGLRAVLRVTPDGRVELLAVEDVPPASAG [r14_877_TrMRF] | 3.73 ± 0.0962 | 4.03 ± 0.418 | 3.94 ± 0.218
35 | SAMVVTYDPATGKITVNVTLYVEEPLTPEERAALAAAIKAALAAAHPDVDVTVTLHPAPSPEEVEKLAASAG [r14_406_JUSTAS] | 12.2 ± 0.586 | 9.34 ± 0.243 | 10.3 ± 0.502
36 | SAMVYEFPFETEEEAREKAREVLLEKLGASPEEEKVELDIEIEIREDPETGKKLATVTVPKVTVSPKKSSAG [r14_467_JUSTAS] | 0.122 ± 0.46 | 1.72 ± 0.414 | 1.33 ± 0.36
37 | SAMVYPYLLRVYLPGSGEVVYFPASSLEEAVELLEEVAALPNVNSVDLYTPDGTKVHFLIDVPPEAFEESAG [r14_747_TrMRF] | 11.2 ± 0.502 | 12.09 ± 0.092 | 11.6 ± 0.276
38 | SAMYKIRLKNGEEIELEGMSIEELEKLFPDVELEIEKVEKVPVVKAPSKEEAEELAKKLPPGAKIIVEDSAG [r14_445_TrROS_Hall] | 1.2 ± 0.586 | 0.975 ± 1.51 | 1.35 ± 1.26
39 | SAMYVRITVTFETPDGTRTVTIEIPPSEVEAGKPLSEEELKALAEEIAAKDPNATITEITIERFPESLESAG [r14_373_JUSTAS] | 18 ± 0.46 | 16.17 ± 0.155 | 16.7 ± 0.314
40 | SANDAMRKMMENMSPEDMMEMVRPPVPPPPVVTIRVPIEDLPKFLQWLSEEFGVEIEREDGYLYITVTASAG [r14_7_TrROS] | 2.61 ± 0.351 | 6.18 ± 0.142 | 5.1 ± 0.397
41 | SANDKHKYEEEYPYRNPNDPGQPMPFKREREVPVQPPPVITIDADELAKELKEQGEIKIPPDGWIAIPFSAG [r14_582_TrROS] | 12.9 ± 1.67 | 17.1 ± 0.837 | 14.7 ± 2.05
